# Test results as given in paper PMC10624832.
# Tests used:
# Hsp70 [1] = biological target: Hsp70 (UniProt P11142)
# [2] = biological target: Hsp70 T204A,S494C-AF488 (C267A, C574A, C603A); test: fluorescence polarisation; steady-state fluorescence anisotropy; 100 nM Hsp70 T204A,S494C-AF488 titrated with 0-1.0 mM full-length DNAJB6 WT or mutants; 20 min at 37 °C; 50 mM HEPES pH 8.0, 200 mM KCl, 10 mM MgCl, 2 mM ATP; one-site binding model
# Hsp70 [3] = biological target: Hsp70 (UniProt P11142); remark: listed apart in the source
# Hsp70 [4] = biological target: Hsp70 (UniProt P11142); remark: listed apart in the source
# Hsp70 [5] = biological target: Hsp70 (UniProt P11142); remark: listed apart in the source
# Chain of DNAJB6^JD (res. 1-72) (O75190 1-72): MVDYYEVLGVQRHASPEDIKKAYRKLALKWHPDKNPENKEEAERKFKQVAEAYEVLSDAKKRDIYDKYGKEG
# Chain of DNAJB6^JD-GF WT (res. 1-109) (O75190 1-109): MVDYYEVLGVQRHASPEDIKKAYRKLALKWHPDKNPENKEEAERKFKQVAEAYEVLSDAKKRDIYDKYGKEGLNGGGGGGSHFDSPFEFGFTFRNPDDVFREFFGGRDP
# Chain of DNAJB6^WT (isoform b), full-length oligomeric, O75190-2 1-241 (natural protein) (O75190 other isoform, or with tags, fused parts or gaps): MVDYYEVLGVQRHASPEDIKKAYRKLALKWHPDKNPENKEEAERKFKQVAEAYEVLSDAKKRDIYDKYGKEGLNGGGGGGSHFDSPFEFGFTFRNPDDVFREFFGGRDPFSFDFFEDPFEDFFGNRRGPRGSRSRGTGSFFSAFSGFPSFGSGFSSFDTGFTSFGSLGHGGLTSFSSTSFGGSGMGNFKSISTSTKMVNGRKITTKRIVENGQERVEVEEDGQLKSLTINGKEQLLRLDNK
substance,measurement,setting,value
DNAJB6^JD-GF P96R (from UniProt O75190 1-109) (domain or fragment),"steady-state ATPase activity of Hsp70, fold enhancement of ATP hydrolysis rate",Hsp70 [1],4 fold
DNAJB6^JD-GF F100V (from UniProt O75190 1-109) (domain or fragment),steady-state ATPase activity of Hsp70 (initial rate of phosphate release); roughly 6-8-fold increase,Hsp70 [1],1.64 nM Pi min^−1
full-length DNAJB6 F93L (from UniProt O75190-2 1-241) (natural protein),Kd,[2],290 µM
full-length DNAJB6 F91I (from UniProt O75190-2 1-241) (natural protein),Kd,[2],600 µM
DNAJB6^JD-GF WT (res. 1-109) (from UniProt O75190 1-109) (domain or fragment),"steady-state ATPase activity of Hsp70, fold activation over Hsp70 alone",Hsp70 [3],1.6 fold
full-length DNAJB6 F100V (from UniProt O75190-2 1-241) (natural protein),Kd,[2],1.5 µM
"DNAJB6^WT (isoform b), full-length oligomeric, O75190-2 1-241 (natural protein)","steady-state ATPase activity of Hsp70 with full-length oligomeric DNAJB6, fold activation",Hsp70 [4],1.4 fold
DNAJB6^JD-GF E54A (from UniProt O75190 1-109) (domain or fragment),"steady-state ATPase activity of Hsp70, fold enhancement of ATP hydrolysis rate",Hsp70 [1],4 fold
"DNAJB6^WT (isoform b), full-length oligomeric (from UniProt O75190-2 1-241) (natural protein)",Kd,[2],> 10000 µM
full-length DNAJB6 A50V (from UniProt O75190-2 1-241) (natural protein),Kd,[2],9 µM
DNAJB6^JD-GF A50V (from UniProt O75190 1-109) (domain or fragment),steady-state ATPase activity of Hsp70 (initial rate of phosphate release); roughly 6-8-fold increase,Hsp70 [1],1.24 nM Pi min^−1
DNAJB6^JD (res. 1-72) (from UniProt O75190 1-72) (domain or fragment),"steady-state ATPase activity of Hsp70 (initial rate of phosphate release, PBP fluorescence); 0.25 μM Hsp70, 0.25 μM DNAJB6 variant",Hsp70 [5],1.74 nM Pi min^−1
full-length DNAJB6 P96R (from UniProt O75190-2 1-241) (natural protein),Kd,[2],47 µM
